The DeepSol protein solubility set

Test: soluble on expression in E. coli; label from the status in PepcDB or PDB records

Sequence | soluble on expression in E. coli
MGSDKIHHHHHHMKTFLESLKFPVQEVNKKSSGEKGPGRPPYWEMVFYWTRKPLVGARSVIAGALLPENVDENLFKAAVRLSSPTPHRENPQIPAEFAKYFEGKKLLDPFAGFGSIPLEGLRLGLDVTAVELLPTTYIFLKAVLEYPKKFGKSLVKDVERWGEWITEQLKNDPEIRELYDDDVAVYIGTWEIRCPHCGRWTPAIGNFWLARVKDGKGYKRLAYMKPERKGDEIEIRVIDLNEILDDISKANVDGNEIIFEGENYVKTVEEAVRDGKLKQSDVKIDGNTVIFEVPSANIESRRDQLTCLMCGNVIKYADENGNHHMKLKNGDFYVKFALRKYHEGDERFARQRLLVKVKVKDGDLIFEPATKEDSEKLWKAKEKVREMLEKGDLDVPSEAIPLYENRRITPILSAEKWYQFFNPRQLLTLIKIVRLIREVGRKVEEEKIAEGWNKERAFEYAEAVATYLSTAMLKYAYYNSIVTRWDSTWWKIGETMSTRGIAMNWNWTESPWFSSFGGMIKTLLAILRGVKYLTSALSSSQRTLADFTENSVKVLQGDATSLNLGEKFDVIVTDPPYADDVPYTELSDFYYVWLKRALSDVENGKLIPRFHKEAFFKRIGPKWVEIKTQWQEFAKKEVSTNPGRFMEDENKKEKAVQHFENLFSQAFVAMREHLKDDGVLVTYYAHTDPGSWINLIEAGWRRARLQITRAIPLTTESETSIVSRGKMSLDTSIVAVWRKQKEEKTVQISTLKEEIERKAKSSAREFIEYGYEGLDLLYGVMAAALEEVTKYREISSLKGPLTTEEILNEYVYPATIRGIVNAIAEIEGTGTLHSGTAMFYTAYKILFGNASLSANDIVLLRLATSTDPSELISSGVLKEKRSSSSKEYTLYTPDLLGKKALDTKEFQKFLHEKKLDPVEPKPKNSVDVLQLLEYYSLLGRSRVKEEIEKLRKMWAGEVEEALFIARLVSEYYAEIYIRKIDPVRRMKEEFASEIDRELEKDGFLEVVLMRRLLGYVGGAV | not soluble
MGSDKIHHHHHHMKTNIVDVFCIIDDFSKLFDETIKKKTLEEADKKCRNRKFKMSDSEVMTILILFHLSRYRDLKAFYLQYITHSCRSEFPHLVSYNRFVELQSRGGGKLIAFLNMCCLGQCTGISFIDSTPLKVCHIKRAHGHRTMRGWAQKGKSTMGWFYGFKLHIVINDRGEIINYQITPGNCDDREPLKDGTFTKNLFGKLIADRGYISQNLFDRLFVDDIHMITKIKKNMKNSLMHLYDKVLLRKRALIETVNDILKNLCRIEHTRHRSVNNFVTNLISGIIAYNILPKKPELNIEIIRNPNFPISA | not soluble
MGSDKIHHHHHHMKTNLLNYDLQGLTRHFADMGEKPFRAKQVMRWMHQSGAQNFNEMTDLAKSLRHKLNEQAGIEIPKLMMSQKSSDGTRKWLLDVGTGNGVETVFIPESDRGTLCISSQVGCALECTFCSTGRQGFNRNLTAAEIIGQLWWANKAMGVTPKNERVISNVVMMGMGEPMANFDNVVTALSIMLDDHGYGLSRRRVTVSTSGMVPQMDRLRDVMPVALAVSLHASNDEVRNQIVPLNKKYPLKELMAACQRYLVKAPRDFITFEYVMLDGINDKAQHARELIELVTDVPCKFNLIPFNPFPNSGYERSSNENIRVFRDILQQAGFVVTVRKTRGDDIDAACGQLAGQVQDKTRRQQKWQQILIGQQG | not soluble
MGSDKIHHHHHHMKTQFPSVWQDKLSQKHFSAFTTIQEAAFDPIKNGKSLLGISPTGSGKTLAYLWPSLLTLTPKKAQQLLILAPNTELAGQIFEVAKEWAQPLNLTAQLFLSGSSQKRQIERLKKGPEIIIGTPGRVFDLVKLKKIKMMNVNTIVLDEFDDLLGKSQIHFVKNIVKRVPRDHQMIYMSATNSIDRTFLADDTLEIDLSKQTVDTISHYYITVAKRERGELLRKFSNIPNFRGLVFFNRLSDLGANEERLQFSGASAVSLASDVNIKFRKVILEKFKNHELSLLLATDLVARGIDIELLETVINFDLPRDKDAYNHRAGRTGRMGKNGIVVTFISHPEELKKLKKFAHVSEVYLKNQILHKK | not soluble
MGSDKIHHHHHHMKTQVLYGKSEIEINVPDDSTIIEPQNIDAIQDYESTIKNVLRNPTNSKPLKEMVNSNDIVSIVISDITRPTPNHILVPLLIEELNHVPRENFVIINGTGTHRDQTRDELIQMLGEDIVNSVKIVHNHCSEKESLAKVGHSQYGCDVYLNKAYVESDFKIVTGFIEPHFFAGFSGGPKGIMPGIAGLETIQTFHNAKMIGDPRSTWGNLEDNPVQDMAREVNRMCKPDFLLNVALNKSKEITAAFAGEIFDTHKEGCAYVKDHAMFKCDQRFDIVIASNSGYPLDQNLYQTVKGMSAASKVVKKDGHIIMVSECADGFPDHGKFAEIFKMADTPQGILELIHNPNFKEVDQWQVQKQASIQTFANVHVYSELTDQQLKDSMLIPTSNIEHTIQELEHRYGRKLTIGVMPQGPLTIPYVEDKE | not soluble
MGSDKIHHHHHHMKVIKFGGSSLASSQQLQKVLAIVEADQKRKYVIVSAPGKRFDGDTKVTDLLIQYARQTIHHQDTQAVTAAIIDRYAEIGHGFNVPEAQLTPIFETIRNLPKQSYADNTYLMAAFKAHGERLNAQLVAAVFQQSGLNARYLDPKDAGMVVTDVPDDAQIIKSSYDQLAKWANSEQILVIPGFFAYNRNGQICTFSRGGSDITGAIIARGVHAERYENFTDVDAIYAVNPSLVAKPAAISEMTFTEMRELSYAGFSVFHDEALIPAIEDNITVNVKNTNHPEAPGTLIQSTREPNPHYPVTGIASSSSFCSLYLRKYLLNKEVGLGRKILTILENHHISYEHMPSGIDDLTIIFDEHQLTPELEKTLVAEISTAINPDEIYFTHDYSILMLVGENMRNRVGIMSRAATALANDNIKLIMVNQGASEISIMFGVHDNDADQAVIALYKEFFD | not soluble
MGSDKIHHHHHHMKVLHIFPSAFLGGSELCAIESIESLQKTGVENHVILPAEGAVINRLENLSVSYKIIQHNWWMSSKPWKTYLKVFMLKGFYSSAASIREYIKNNGIDVVITHSIVIPSGALGARLTNTPHVWYLHEYGDLDHQLKFEYGKSFSLNLINKLSKKIIVNSDALKKHFSKKLPAAKINRLYYSVNYPEFTPLTEKPSGELLLCMVGRIAKGKNQLVALKALALLKQEQIFPQLVFVGGADPDYLKLLEAYIKTHELEKQIAFAGQTDRPWDFVMRSQAVVVGSAMEAFGRVTVEAMKAGRIPIVSDTGAGPELITHNENGFLFDPEKEKQLAEIIKQIWLGTDFTEMTVQAKQYALAHFNSKLHGHELLKILTGLV | not soluble
MGSDKIHHHHHHMKWSEYANLAQQSLEKFYLADTKEQFLNNFYPTENPEEDNKVFNYWWLAHLVEVRLDAYLRTKKQADLEVAEKTYLHNKNRNGGTLIHDFYDDMLWNALAAYRLYKATGKSIYLEDAQLVWQDLVDTGWNDIMGGGFAWRRPQMYYKNTPVNAPFIILSCWLYNELNETKYLEWAMKTYEWQTKVLVREDGFVEDGINRLEDGTIDYEWKFTYNQGVYIGANLELYRITKEAKYLDTANKTAAISLKELTEDGIFKDEGNGGDEGLFKGIFYRYFTDLIEETANKTYRDFVLNSCQILVENAKLDGYLLMGMNWKEKPSGKIPYSAELSGMIALEMAAKLE | not soluble
MGSDKIHHHHHHMKYDVVVIGAGGAGYHGAFRLAKAKYNVLMADPKGELGGNCLYSGCVPSKTVREVIQTAWRLTNIANVKIPLDFSTVQDRKDYVQELRFKQHKRNMSQYETLTFYKGYVKIKDPTHVIVKTDEGKEIEAETRYMIIASGAETAKLRLPGVEYCLTSDDIFGYKTSFRKLPQDMVIIGAGYIGLEIASIFRLMGVQTHIIEMLDRALITLEDQDIVNTLLSILKLNIKFNSPVTEVKKIKDDEYEVIYSTKDGSKKSIFTNSVVLAAGRRPVIPEGAREIGLSISKTGIVVDETMKTNIPNVFATGDANGLAPYYHAAVRMSIAAANNIMANGMPVDYVDVKSIPVTIYTIPSLSYVGILPSKARKMGIEIVEAEYNMEEDVSAQIYGQKEGVLKLIFERGSMRLIGAWMIGVHSQYLINELGLAVAYGLNAKQLASFAEQHPSTNEIISYTARKVI | not soluble
MGSDKIHHHHHHMKYMIGIDGGGTKTEAIAFDKDGNELVRATSGFGNILIDFEEALVHIMEAIDQCQKGVLNEHCVCICLGLAGVSGVNTNELTLRLKKKYGTPIEVFNDAMIAHAAVLKGKDGILTIGGTGTICLGKKGEVYEYSGGWGHILGDAGSGYWIGLQALKRMANQLDQGIRLCPLSLRIQDEFQLLTASHIKRLVYRSSKDKVAAITPFVIREARNGNDAAHEIMMQAGKELARITIDVYNKMQLDLLVSIAVSGSILRFVPEIYDEFKKCCEKSVGEVTFVLQSEPAVKGTYYLMKNMYFKK | not soluble
MGSDKIHHHHHHMLAEERQQMIAHYVDEHQICRVTELCRLTSTSESTIRRDLSEMEDRGLLKRVHGGAQSLQTFGQDVAQQIRFNLNKDDKLAIARLAARKVHPHDYLFLDAGTTIYEMVPFLKEISGLHVVTNGLETALALTDAGIDCCLLGGHVKRQTHAAIGATTVSRLQELNFNAAFIGANALSPAGFLTTPDTEEAAVKRTAIQQSQQAFVLIDRSKFNAVTFAEFAKTDQVTIISRLEAGDREKLPVNIQLEEAE | not soluble
MGSDKIHHHHHHMLAIIKQFFAKSHGTTVSDSRFLALNHWLSNTFGEPLSPVLISGDASFRRYFRAVHQGRAMVIMDTPVALIPTEPFVAVRNAYAASGLPVPGIIAKDDEQGFMALEDFGDVQLLSLLNSQSVRHWYPRALALLPGIAAVTQTVLGPLPDYDDAFVRRELGIFTEWLLGTHLKLELTSDEEAIIADAFDMLTQNALEQPKVGMHRDFHSRNLMVVDGELKLLDFQDAVLGPVTYDAVSLLRDCYIRWSEDLVDDMLVEFFVLAHEHALVPPHTDMVQFRRWFELMGLQRHIKAAGIFARLNHRDGKAGYLKDIPLTMHYIRDVAVRYKELGDFAQFIMRRVMPALEAGA | not soluble
MGSDKIHHHHHHMLDDIKKTLWAAADKLRANVDAAEYKHLVLGLIFLKFVSDTFAARRAELERRFVDVNDDYFLHDADADFIAEELEERDYYIEVNVFWVPEPARWEGLRANAKQANIGKQIDDALDAIEKENPSLKGILDKRYARAPLPDGKLGELVDLISTIGFGEDQSKARDILGQVYEYFLGQFASAEGKKGGQFYTPQSIVNTLVAVLDPHQGKVYDPCCGSGGMFVQSEKFIEAHGGKLGDVSIYGQESNPTTWRLAAMNLAIRGIDFNLGREPGDTFTKNQHSDLRADYILANPPFNISDWWHGSLEGDPRWVYGNPPQGNANYAWLQHMLYHLKPTGRAGIVLANGSMSSSQNTEGDIRRAMVDADVVEVMVALPGQLFFNTQIPACLWFLTKQKTARKGEVLFIDARKLGKMISRVQSELDQAAIDRIANTAKAWRGEDMTGVEGFEDGYQDIPGFCRSVPLSEIAEHGHVLTPGRYVGAEEVEDCDDAFADKMTMLTEKLAEQMAKGAELDQLIRQKLGGLGYEF | not soluble
MGSDKIHHHHHHMLEFVNVSKSFWTGTQRKIILDKVSFTVELGTSLGILAPNGTGKTTLINMMAGLEKPDEGEIYRGCKISFPLGFMGGVINRLSAMENCRYIARLYGLDPDYVESYCRWLCGLNEYFDQPLGTYSAGMKSRFSFALMLALDFDIYLIDEGMPSSTDVEFNRKAGIILQERLETTTIVIVSHQPRTLEKFANTAAVLMNGQLHMFETLEEAKQLYDYETQG | not soluble
MGSDKIHHHHHHMLEQKINVDNTALFEQLWGWTNELREKIDARFELHSDPSTENFKKYSALIGEAHGSVNTFSGPEIDWLVHSWLREPKSGFCNMHLTVWLKSQIHVPHLAIVFATVPELFFFIDYVSRTDLFTDLDYLDRYYEPVNQTYLAFLKDSRFQQYISKTLYIRQVQSHTSLCYTSPVTEETLARIHTLAHEMIDRWLGWVDEAEPVAESERDALSERDLFVRRTVAERDPDNQIAVRLFGAEMTDKLVRSLWGGDRIL | not soluble
